Measurements published in article PMC4939959.

Target: Prototype foamy virus (PFV) Env glycoprotein, wild type, fully processed (gp18^LP, gp80^SU, gp48^TM), trimeric spike in the viral membrane (Prototype foamy virus (PFV)) (UniProt P14351)
Experiment: cryo-electron tomography with subtomogram averaging; Env in situ in the membrane of purified virus particles (wt fixed with 4% paraformaldehyde, iNAB, iFuse), plunge-frozen; single spike, 3-fold symmetry seen in the asymmetric average and then enforced; 3.2, 2.9 and 2.8 nm at FSC = 0.5; step: Env protomers in the trimeric spike

Question: With “Prototype foamy virus (PFV) Env glycoprotein, wild type, fully processed (gp18^LP, gp80^SU, gp48^TM), trimeric spike in the viral membrane (from UniProt P14351 1-126; P14351 1-126; P14351 1-126) (complex)” as the substance, how does the stoichiometry N read?
Answer: 3
